Values quoted from earlier work as cited in patent EP0632082B1, “Preparation of activated carbamates of poly(alkylene glycol) and their use” ("HEYLECINA", Société Anonyme, priority 1993, dated 1995).

Settings: modification with SC-mPEG

papaya proteinase III: papaya proteinase III modified with SC-mPEG
increase of specific activity: 250%
